Here are results for 36 molecules from patent publication US20230250134A1 (University of Washington, published 2023).

B1: AHB1-2 (designed binder)
chain: DEDLEELERLYRKAEEVAKEAEEASRRGDKERAKELLERALHLFDQVFELAQELQEKLTDEKRQKATHLDKAVHEAADELYQRVR
B2: LCB1_v1.1-GSLCB1_v1.1 (1GS1) (designed binder)
chain: DKENILQKIYEIMKTLDQLGHAEASMQVSDLIYEFMKQGDERLLEEAERLLEEVERGGGGSGGGGSGGGGSGGGGSGGGGSGGGGSGGGGSGGGGSGGGGSGGGGSGGGGSGGGGSGGGGSGGGGSGGGGSDKENILQKIYEIMKTLDQLGHAEASMQVSDLIYEFMKQGDERLLEEAERLLEEVER
B3: LCB3_v1.2-GS3-LCB3_v1.2 (3GS3) (designed binder)
chain: NDDELHMQMTDLVYEALHFAKDEEIQKHVFQLFEKATKAYKNKDRQKLEKVVEELKELLERLLSGGGGSGGGGSGGGGSGGGGSGGGGSGGGGSGGGGSGGGGSGGGGSGGGGSGGGGSGGGGSGGGGSGGGGSGGGGSNDDELHMQMTDLVYEALHFAKDEEIQKHVFQLFEKATKAYKNKDRQKLEKVVEELKELLERLLS
B4: AHB1-1 (designed binder)
chain: DEDLEELERLYRKAEEVAKEAKDASRRGDDERAKEQMERAMRLFDQVFELAQELQEKQTDGNRQKATHLDKAVKEAADELYQRVR
B5: 36175 (5_LCB1_linker14) (designed binder)
chain: DKEWILQKIYEIMRLLDELGHAEASMRVSDLIYEFMKKGDERLLEEAERLLEEVERGGSGSSGGSGSGSGDKEWILQKIYEIMRLLDELGHAEASMRVSDLIYEFMKKGDERLLEEAERLLEEVERGGSGSSGGSGSGSGDKEWILQKIYEIMRLLDELGHAEASMRVSDLIYEFMKKGDERLLEEAERLLEEVERGGSGSSGGSGSGSGDKEWILQKIYEIMRLLDELGHAEASMRVSDLIYEFMKKGDERLLEEAERLLEEVERGGSGSSGGSGSGSGDKEWILQKIYEIMRLLDELGHAEASMRVSDLIYEFMKKGDERLLEEAERLLEEVER
B6: Mucin_LCB1_v1.3 (designed binder)
chain: AKAKAKAKAKAKAKAKAKAKGGDKENILQKIYEIMKTLEQLGHAEASMQVSDLIYEFMKQGDERLLEEAERLLEEVER
B7: LCB7-1 (designed binder)
chain: DDDIRYLIYMAKLRLEQGNPEEAEKVLEMARFLAERLGMEELLKEVRELLRKIEELR
B8: LCB7-2 (designed binder)
chain: B7 chain with I4V, R14L, M29S, L33A, R36L, M39N
B9: LCB2-1 (designed binder)
chain: SDDEDSVRYLLYMAELRYEQGNPEKAKKILEMAEFIAKRNNNEELERLVREVKKRL
B10: LCB2-2 (designed binder)
chain: B9 chain with S6A, R17L, E19K, K25E, I29L, M32L
B11: LCB1-36GS-LCB1 (designed binder)
chain: DKEWILQKIYEIMRLLDELGHAEASMRVSDLIYEFMKKGDERLLEEAERLLEEVERGGGSGGGSGGSGGSGGGSGGGSGSGGSGGGGSGGGSDKEWILQKIYEIMRLLDELGHAEASMRVSDLIYEFMKKGDERLLEEAERLLEEVER
B12: LCB4-2 (designed binder)
chain: DREERLKYLEMLLELAVERNDPYLIFDVAIELLRLAEENNDERIYERAKRILEEVE
B13: LCB1_v1.1_Cys (designed binder)
chain: DKENILQKIYEIMKTLDQLGHAEASMQVSDLIYEFMKQGDERLLEEAERLLEEVERC
B14: LCB1-4 (designed binder)
chain: DKENILQKIYEIMKTLDQLGHAEASMQVSDLIYEFMKQGDERLLEEAERLLEEVER
notes: also called LCB1_v1.1
B15: LCB1_v1.5 (LCB1_v1.3 with N-link Glycosylation) (designed binder)
chain: B14 chain with D17E, Q27N
modifications: also: N-linked glycosylation, site not given here
B16: LCB1_v1.2 (designed binder)
chain: B14 chain with Q27Y
B17: LCB1-5 (designed binder)
chain: B14 chain with Q27N
B18: LCB1_v1.4 (designed binder)
chain: B14 chain with D17E, R42N, R49Q, E52Q
B19: LCB8-1 (designed binder)
chain: PIIELLREAKEKNDEFAISDALYLVNELLQRTGDPRLEEVLYLIWRALKEKDPRLLDRAIELFER
B20: LCB8-2 (designed binder)
chain: B19 chain with I2V, I3T, E15P, F16M, Y23F, N26F, L29A, Y42F
B21: LCB1-24GS-LCB1 (designed binder)
chain: DKEWILQKIYEIMRLLDELGHAEASMRVSDLIYEFMKKGDERLLEEAERLLEEVERGGGSGGGSSGGSGGSSGGGSGGGSDKEWILQKIYEIMRLLDELGHAEASMRVSDLIYEFMKKGDERLLEEAERLLEEVER
B22: AHB2-1 (designed binder)
chain: ELEERVMHLLDQVSELAHELLHKLTGEELQRATHFDKWANEAILELIKSDDEREIREIEEEARRILEHLEELARK
B23: Mucin_LCB1_v1.1_Cys (designed binder)
chain: AKAKAKAKAKAKAKAKAKAKGGDKENILQKIYEIMKTLDQLGHAEASMQVSDLIYEFMKQGDERLLEEAERLLEEVERC
B24: LCB5-1 (designed binder)
chain: SLEELKEQVKELKKELSPEMRRLIEEALRFLEEGNPAMAMMVLSDLVYQLGDPRVIDLYMLVTKT
B25: AHB2-2 (designed binder)
chain: ELEEQVMHVLDQVSELAHELLHKLTGEELERAAYFNWWATEMMLELIKSDDEREIREIEEEARRILEHLEELARK
B26: LCB1_v1.1-PRO-LCB1_v1.1 (1PRO1) (designed binder)
chain: DKENILQKIYEIMKTLDQLGHAEASMQVSDLIYEFMKQGDERLLEEAERLLEEVERAGSGGSGGSGGSPVPSTPPTPSPSTPPTPSPSPVPSTPPTPSPSTPPTPSPSPVPSTPPTPSPSTPPTPSPSASGDKENILQKIYEIMKTLDQLGHAEASMQVSDLIYEFMKQGDERLLEEAERLLEEVER
B27: LCB3-2 (designed binder)
chain: NDDELLMLVTDLVAEALLFAKDEEIKKRVFTLFELADKAYKNNDRDTLSKVVSELKELLERLQ
B28: LCB4-1 (designed binder)
chain: QREKRLKQLEMLLEYAIERNDPYLMFDVAVEMLRLAEENNDERIIERAKRILEEYE
B29: LCB3_v1.2-PRO-LCB3_v1.2 (3PRO3) (designed binder)
chain: NDDELHMQMTDLVYEALHFAKDEEIQKHVFQLFEKATKAYKNKDRQKLEKVVEELKELLERLLSAGSGGSGGSGGSPVPSTPPTPSPSTPPTPSPSPVPSTPPTPSPSTPPTPSPSPVPSTPPTPSPSTPPTPSPSASGNDDELHMQMTDLVYEALHFAKDEEIQKHVFQLFEKATKAYKNKDRQKLEKVVEELKELLERLLS
B30: LCB3_v1.2 (designed binder)
chain: NDDELHMQMTDLVYEALHFAKDEEIQKHVFQLFEKATKAYKNKDRQKLEKVVEELKELLERLLS
notes: also called LCB3-3
B31: LCB3-4 (designed binder)
chain: B30 chain with K35N
B32: LCB3_v1.3 (designed binder)
chain: B30 chain with I25F
B33: LCB3_v1.4 (designed binder)
chain: B30 chain with F19K, I25F, Y40R
B34: LCB3_v1.1 (designed binder)
chain: B30 chain with I25F, K43N
B35: LCB3_v1.5 (designed binder)
chain: B30 chain with F19K, I25M, H28R, K35Q, T37D, N42T
B36: LCB5-2 (designed binder)
chain: SLEEVKEILKELKKELSPEDRRLIEEALRLLEEGNPAMASMVLSDLVFLLGDPRVIELLMLVTKT

Numbering of substitutions follows the chain as printed. Where no end group is shown, it is not given here.

The target of the first assay is SARS-COV-2 Spike glycoprotein receptor binding domain (RBD) (SARS-CoV-2, UniProt P0DTC2 319-541).
Test: not given
On to B1, for which the Kd worked out at 0.2 nM. With B2, the Kd worked out at 0.2 nM. The same measure, in the same setting: under B3 stands 0.2 nM; under B4, 0.2 nM. For B5, the Kd was found to be 0.2 nM. The same measure, in the same setting: then B6, with 0.2 nM; and B7, with 0.2 nM; and B8, with 0.2 nM.

B9 registered a Kd of 0.2 nM. The same measure, in the same setting: then B10, with 0.2 nM; and B11, with 0.2 nM. The molecule B12 registered a Kd of 0.2 nM. Same read-out and setting: under B13 stands 0.2 nM; under B14, 0.2 nM; under B15, 0.2 nM. On to B16, for which the Kd amounted to 0.2 nM. Turning to B17, the Kd was determined as 0.2 nM. The same measure, in the same setting: then B18, with 0.2 nM. The molecule B19 displayed a Kd of 0.2 nM. On to B20, for which the Kd is 0.2 nM. In the case of B21, the Kd came to 0.2 nM.

B22 showed a Kd of 0.2 nM.

Turning to B23, the Kd came to 0.2 nM. On the same count and under the same terms, then B24, with 0.2 nM; and B25, with 0.2 nM. On the same count and under the same terms, under B26 stands 0.2 nM. Same read-out and setting: then B27, with 0.2 nM. Molecule B28 came in with a Kd of 0.2 nM. The same measure, in the same setting: then B29, with 0.2 nM; and B30, with 0.2 nM. The same measure, in the same setting: under B31 stands 0.2 nM; under B32, 0.2 nM; under B33, 0.2 nM. Regarding B34, the Kd was 0.2 nM. On the same count and under the same terms, then B35, with 0.2 nM; and B36, with 0.2 nM.

The target of another assay is SARS-COV-2 Spike glycoprotein (SARS-CoV-2, UniProt P0DTC2 14-1208). The assay can be described thus: estimated Kd for Spike (avidity), Table 10.
As for B2, the Kd is 0.1 nM.

Turning to B3, the Kd is 0.1 nM. Same read-out and setting: under B5 stands 0.1 nM; under B7, 0.1 nM. Turning to B8, the Kd is 0.1 nM. The same measure, in the same setting: under B9 stands 0.1 nM; under B10, 0.1 nM. As to B12, the Kd was 0.1 nM. Still for that read-out and setting: under B13 stands 0.1 nM; under B14, 0.1 nM; under B15, 0.1 nM.

As for B16, the Kd is 0.1 nM. On the same count and under the same terms, then B17, with 0.1 nM; and B18, with 0.1 nM. On the same count and under the same terms, then B23, with 0.1 nM; and B25, with 0.1 nM. As for B26, the Kd is 0.1 nM. Turning to B28, the Kd was 0.1 nM.

For B29, the Kd was 0.1 nM.
